# The DeepSol protein solubility set
# Assay: soluble on expression in E. coli; label from the status in PepcDB or PDB records
row,Sequence,soluble on expression in E. coli
1,MRFLHTADWQLGMTRHFLNGEAQPRYSASRREAVASLGEIAKRTGAEFVVVSGDVFEHNQLAPRDVSQSLEAMRAIGVPVYLLPGNHDPLDASSVYTSALFVAERPDNVVVLDRAGVHEVRPGVQIVAAPWRSKAPTSDLIGDVLADLPADGVTRVLVGHGGVDILDPDKNKPSLIRMAAVEDALARGAVHYVALGDKHSRTEVGGSGRVWYSGSPEVTNYDDIESDPGHVLVVDIDENDARRAVRVESEKVGRWRFVTLRRSVDTDRDIADLDLNLDLLDDKERTVVRLALTGSLTVTDKAKLDECLDRYARLFAALTTWERHTDIAVIPADGEFDDLGIGGFAAAAVDELVATARSEAAEAEDARAALGLLLRLVDRDKGAALEHHHHHH,soluble
2,VEREVLMNGTQAVAHAAMYADVDVVAAYPIRPYTEVMDTISKLIADGELDAEFIVAEGEHGQFETVKHASLAGARTLVGSSGVGWLYAMEAIVVTATDRAPVVAIIGNRALDDPGAYGVEHNDALMVRDVGWLLVWVDTAQEAFDTALLAYRIAEDQRVLLPLGISMDGGFLTHSEQIVRLPPRELVKNFLPPYNRGKYLVHPDNPITVAPQVNEDWVMEIRRQHEEAMERARSVIVEAYEEFKKVFGRYPGSTSDLQMPE,not soluble
3,MSLQSEKTEAVVTLGANLTKSERLQMLDAFGVKANEVKIIDVTNQDIREQLGLDTSKPIPASSQSISSSYVVVKDKGGINVTTNNLTEVTGSMLANALLTSGVNNADVKADAPFKVTGTAALAGILKGFEDASGEELSLPKKEAAREEISLTNNLSNAKTKDGQTLGKDEAAVVVNDIKTDVIKDKPKNDEEIGKIVNNVTNNYNILLTQGQQEQTIKFMSKINDLDYNYGAMKESLNQMNDKLQQILKDTGKQLEESGLLEKALNGIKNVLVDIKDFLVNMFSSASEKVKDGITYDENGNIVIKTGNNSDESKNEESIQDKPQTQSNDNNQNQENEQGQNQTKEGHHHHHH,not soluble
4,MNASTSSPSQQLQQAINSTIDKECAVCYSEMILPTTIPSCGHKFCFICLKGVSVSNNGDCPICRGPIDSQIFKKPLQAVDLKMDIPGTPSAAAPDPVVKQEVDDEDVKPDVKKLQEELKKQQAAAAAQKMFWLYRGRHQGWWRFDPRIEKEIEEAFTHQMPMTEVTICGNPYIVDFSQMCQYPKNQSNYSRNVKYGSRLKVLKILAKIDRKSAF,not soluble
5,GKQKQYLFEARDITSRKLMEDKLYQRESSLRNYYEQQPVMMVTLDSHNRIQEVNRFAQLLLGYEPIEMLGHRLREFYLDDKALFPRQVLLQPSHQVHDVWRREIEYRHADGHSVWVRENIRPLNDSD,not soluble
6,MGSDKIHHHHHHMNAERQPSCCKVRLLLCDKSYPSHQSPIYTPTPPPWPLLALPGGVIMRTYLSSVAAIMSRSPDPAPRSSAPGRRASSSTRPPLARIGEVAYLKVVAVNTTGAFLDWGQPKDVLLPFAEQRFRPEVGKRVLVMLYEDAQGRPVASMRLDRFLADEATDLKAGDQVALVVAERTDLGFKAVVDHRYWGLLYADDIVHPPRRGQRLTGYIKRVREDGRLDLAMLPPGEAGLDVVGDKVLALLRCHGGFVALGDKTPAAEIKARVGVSKSAFKQAVGRLYKKRLITIEAEGIRLTREAIDDASSD,not soluble
7,IEVAAIQGNVPRMGLDFNAQRRAVLANHARETLKLDEQVDLVIWPENSSDVNPFSDAQARAIIDGAVEHVQAPILVGTITVDEVGPRNTMQVFDPVEGAAEYHNKKFLQPFGEYMPFREFLRIFSPYVDSAGNFQPGDGTGVVEMNAANLGRAVTVGVMTCYEVIFDRAGRDAIANGAEFLTTPTNNATFGFTDMTYQQLAMSRMRAIEFDRAVVVAATSGVSAIVNPDGSISQNTRIFEAATLTESIPLKDTVTIAARVGFY,not soluble
8,MSDRYRFTILGCGSSPGVPRPNGDWGACNPNNPKNKRYRSSLLVERIHKSGKKTTIVIDTGPDFRSQMIDACVNHLDAALYTHSHADHIHGIDDLRSYALAQKSLIDIYADSFTLRHLKNAFGYCFQTPKGSSYLPILKAHLINEDSQFIIQGQGGAIHVNTHLQLHGSIHSLGFRIGNVAYCTDVSQFPKKTLPKLMNLNVLIIEALQFKSHPSHLSVDQALQWIKYLQPKQAILTHMDRSLDYNEVINYLPPHVKPAYQGLIFEADA,not soluble
9,GMPKANLEIIRSTYEGSASSNAKHLAEALSEKVEWTEAEGFPYGGTYIGVEAIMENVFSRLGSEWNDYKASVNMYHEVSGKDVIIAEGMYSGVYKDTGKSFEAEFVHVWQLENGKIVKFKQYVDSHLVREAMKS,soluble
10,MRVLYERCCGLDVHKKSITACVLTPEGKEIRTFGTMTDDLEELVEWLKQKQVTHVAMESTGVYWKPIYNLLEAEPIDVLVVNAQHIKAVPGRKTDVKDAEWIADLLRHGLLRGSYIPDRAQRELRELVRYRRSLIEERARELNRIQKVLEGANIKLASVVSDINGVSAQQILRALIEGTDDPAVLAQLAKGRLKQKIGELRRALKGIMGPHQRMMLAEQCRHIEYLDEAIARLSREIEERTRPFHEVLELMETIPGVGRQSAEQIIAEIGTDMSRFPTAAHVASWAGMAPGNHESAGKRLSGRTRKGNKKLRACLVECARAAARTKNTYLSAKYHRIAKRRGANRASVAVGRTILEIIYSVLTRKAPYRELGADYWDQQREAAIVRQTVKRLEGLGYEVKLEKTSA,not soluble
11,ESRSQISRRNQDMLLSVLDLEKMTVDDIMVPRSEIIGIDINDDWKSILRQLSHSPHGRIVLYRDSLDDAISMLRVREAWRLMSEKKEFTKETMLRAADEIYFVPEGTPLSTQLVKFQRNKKKVGLVVNEYGDIQGLVTVEDILE,not soluble
12,MGSDKIHHHHHHSKATGRGSGGMIGGLVASKVDPDIMSNLINNRPTVLVTGTNGKSTTTRMLAAAMRSTYTVATNEGGDNMDAGIISALLAGRNASHVVLEVDELHVPAAIERLKPDALVLLNLSRDQLDRVGEINKIERVLRDAVRSRPEMTVIANCDDVLVTSVAFDAENVIWVGAGTGWQGESATCPRTESRILHDGRHWSAEKTLLDGRTFARPTPSWEVDGDTIHSPSGDLTLDLNLPGQANRGNAAQAIAASTVFNVPVSSALPAVNSVNNVAGRYSTITVGEHKVHLLLAKNPAGWQEALSMVDRTADGLVIVVNGQVADGEDLSWLWDVRFEDFENLSVKASGERGTDLAVRLTYAEIDHELISNPVDAIAACPPGRIEVLANYTAFRDLKKALEKGTEQ,not soluble
13,REIADNTYIVLGTMTLNDFNEYFETDLESDNVDTIAGFYLTGVGTIPSQEEKEHFEVESNGKHLELINDKVKDGRVTKLKILVSEVEEKEDEKD,not soluble
14,GMADKTGTPHPLTEPGVWIERIGGRVFPPHLPALFLDRDGTINVDTDYPSDPAEIVLRPQMLPAIATANRAGIPVVVVTNQSGIARGYFGWSAFAAVNGRVLELLREEGVFVDMVLACAYHEAGVGPLAIPDHPMRKPNPGMLVEAGKRLALDLQRSLIVGDKLADMQAGKRAGLAQGWLVDGEAAVQPGFAIRPLRDSSELGDLLAAIETLGRDNRS,soluble
15,MDPLLTLLYIRHTLTSPWSSSEERDTAKAAMMEEMEKHNMAPYIRLVCEALGVPLDESKLAEMDAINAKKVAAFDARLKDAVDNLGDTEVRDVLQAKCDHYARIGDLEMCMKTNEECAAKTLATGPKLDLYFQRIRLGIAFSDNDIAAKGITDAHRLMKDGDWERRNRLRVYEGIYHVFIRDFQRGSTLLLDSITTFAAGELLTFQDFVFITVVASLPVLSRPELRKRIVYSPEVNRTGVDDVRELVNSIYDCQYNKVFPNLEVVCQHLRKVVYLSPHVSYFFREMRVLIFTQFLDSYSSVTLESMGAAFGIPVPALDSMLCTLISNERIACKVDRVDGSVETYRGDTTNFDYHRIVKSGDLLLNRIQKLSRLVDM,not soluble
16,MSLARTEKIYIYGASGHGLVCEDVAKNMGYKECIFLDDFKGMKFESTLPKYDFFIAIGNNEIRKKIYQKISENGFKIVNLIHKSALISPSAIVEENAGILIMPYVVINAKAKIEKGVILNTSSVIEHECVIGEFSHVSVGAKCAGNVKIGKNCFLGINSCVLPNLSLADDSILGGGATLVKNQDEKGVFVGVPAKRMEGGSHHHHHH,soluble
17,MCHKLPKTHNCTFFRKLSNWHSGILISLEQKVTGSIPARETVQLAQWYFDFFGAEGHGFNPREGNCPTGAGVYLTSLEQKVTGSIPAWENNFCLIC,not soluble
